# Target: Met receptor on MK keratinocytes (mouse) (UniProt P16056)
# Experiment: cell-based or functional assay
substance,measurement,value
InIB full length (from UniProt P0DQD2 31-630) (ligand),"stimulation of DNA synthesis in MK keratinocytes, lowest active concentration",100 pM

# Reference: patent EP2138508A1
